We go through one molecule from article PMC3155616 (Cell, 2011).

The target of this test is E. coli SSB (wild type single-stranded DNA binding protein, homotetramer) (E. coli, UniProt P0AGE0 1-178). In words: ITC. (ITC needs no label: the signal is the heat of the interaction.)
Sequence of E. coli SSB (wild type single-stranded DNA binding protein, homotetramer) (P0AGE0 whole entry): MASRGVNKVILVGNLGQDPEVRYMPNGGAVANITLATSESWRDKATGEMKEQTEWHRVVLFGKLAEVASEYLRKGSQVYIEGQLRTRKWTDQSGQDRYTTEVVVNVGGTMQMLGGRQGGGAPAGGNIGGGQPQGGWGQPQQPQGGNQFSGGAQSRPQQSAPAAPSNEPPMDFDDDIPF

B1: E. coli RecO protein (natural protein, UniProt P0A7H3 1-242, looked up)
chain: MEGWQRAFVLHSRPWSETSLMLDVFTEESGRVRLVAKGARSKRSTLKGALQPFTPLLLRFGGRGEVKTLRSAEAVSLALPLSGITLYSGLYINELLSRVLEYETRFSELFFDYLHCIQSLAGVTGTPEPALRRFELALLGHLGYGVNFTHCAGSGEPVDDTMTYRYREEKGFIASVVIDNKTFTGRQLKALNAREFPDADTLRAAKRFTRMALKPYLGGKPLKSRELFRQFMPKRTVKTHYE
Regarding B1, the “stoichiometry N” value is 1 RecO per SSB C-terminal tail (four tails per tetramer).
